This note sets out measurements from IntAct's records for PubMed 18007657.

The test addresses T1, anm10_arath PRMT10 (UniProt Q9MAT5).
T1 sequence: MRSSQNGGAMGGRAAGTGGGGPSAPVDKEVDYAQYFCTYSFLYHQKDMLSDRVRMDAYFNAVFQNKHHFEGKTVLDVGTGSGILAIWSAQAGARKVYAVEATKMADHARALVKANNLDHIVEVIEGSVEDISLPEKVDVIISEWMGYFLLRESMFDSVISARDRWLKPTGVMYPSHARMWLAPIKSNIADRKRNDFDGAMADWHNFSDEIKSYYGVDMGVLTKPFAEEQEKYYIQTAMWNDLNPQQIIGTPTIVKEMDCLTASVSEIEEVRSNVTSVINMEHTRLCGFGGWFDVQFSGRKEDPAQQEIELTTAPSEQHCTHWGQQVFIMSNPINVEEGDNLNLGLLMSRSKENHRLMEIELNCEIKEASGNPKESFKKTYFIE

Turning to “Histone H4 (Bos taurus (Bovine)) (from UniProt P62803) R4L”, the “effect of a mutation on the interaction” value is on record as “decreasing interaction”.
